Measurements from patent US20230181756A1 (Novartis, published 2023).

T1: human CCR7 (human, UniProt P32248 25-378)
T1 sequence: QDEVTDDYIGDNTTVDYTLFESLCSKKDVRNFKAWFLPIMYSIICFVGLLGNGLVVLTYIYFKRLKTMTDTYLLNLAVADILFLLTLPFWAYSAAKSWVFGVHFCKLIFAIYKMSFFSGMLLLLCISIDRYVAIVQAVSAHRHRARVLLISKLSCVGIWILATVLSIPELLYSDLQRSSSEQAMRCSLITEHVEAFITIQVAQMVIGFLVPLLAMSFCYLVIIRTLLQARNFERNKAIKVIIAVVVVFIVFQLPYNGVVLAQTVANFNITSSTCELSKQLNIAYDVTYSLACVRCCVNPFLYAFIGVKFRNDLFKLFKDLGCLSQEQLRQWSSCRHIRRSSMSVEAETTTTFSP

B1: Parental 506E15 (antibody, V domains shown)
VH: EVMLVESGGGLVKPGGSLKLSCAASGFTFSSYAMSWIRQTPEKRLEWVATISSGGSFTYYPDSVKGRFTISRDNVKNTLYLQMSSLRSEDTAMYYCARRASTVVGTDFDVWGAGTTVTVSS
VL: DIQMTQSPSSLSASLGERVSLTCRASQDIGSSLNWLQQEPDGTIKRLIYATSSLDSGVPKRFSGSRSGSDYSLTISSLESEDFVVYYCLQYASSPPTFGGGTKLEIK
B2: Parental 121G12 (antibody, V domains shown)
VH: EVQLVESGGGLVKPGGSLKLSCAASGFTFSTYAMSWVRQTPEKRLEWVATISDGGSYSYYPDNVKGRFTISRDNAKNNLYLQMSHLKSEDTAMYYCARRGSRYEEYYVMDYWGQGTSVTVSS
VL: DIVLTQSPATLSVTPGDSVSLSCRASQSISNNLHWYQQKSHESPKLLIKYASQSISGIPSRFSGSGSGTDFTLSINSVETEDFGMYFCQQSNSWLTFGAGTKLGLK
B3: Parental 674J13 (antibody, IgG1, V domains shown)
VH: DVQLQESGPDLVKPSQSLSLTCTVTGYSITSGYSWHWIRQFPGNKLEWMAHIHSSGSTNYNPSLKSRISIIRDTSKNLFFLQLNSVTTEDTATYYCARGGVQAFAYWGQGTLVTVSA
VL: QIVLTQSPAIMSASPGEKVTMTCSASSSVIYMHWYQQKSGTSPKRWIYDTSKLASGVPARFSGSGSGTSYSLTISSMEAEDAATYYCQQWSSNPLTFGAGTTLELK
B4: Parental 684E12 (antibody, IgG1, V domains shown)
VH: EVHLVESGGGLVKPGGSLKLSCAASGFTFSNFAMSWVRQTPEKRLEWVATISTGGTYTYYPDSVKGRFTISRDNAKKTLYLQMSSLRSEDTAMYYCTRRGYDGVDKWGQGTTLTVSS
VL: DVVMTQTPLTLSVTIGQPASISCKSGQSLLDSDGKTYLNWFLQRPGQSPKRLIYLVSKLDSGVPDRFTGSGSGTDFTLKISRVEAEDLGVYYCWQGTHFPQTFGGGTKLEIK
B5: 506E15.CysMab.DAPA.AURIX2 (antibody, human IgG1, kappa, V domains shown)
VH: EVQLVESGGGLVKPGGSLRLSCAASGFTFSSYAMSWIRQAPGKGLEWVATISSGGSFTYYPDSVKGRFTISRDNAKNSLYLQMNSLRAEDTAVYYCARRASTVVGTDFDVWGQGTTVTVSS
VL: DIQMTQSPSSLSASVGDRVTLTCRASQDIGSSLNWLQQKPGKAIKRLIYATSSLDSGVPSRFSGSRSGTDYTLTISSLQPEDFVVYYCLQYASSPPTFGGGTKLEIKR
modifications: AURIX2 on engineered cysteines, DAR 3.80
notes: also called 506E15.DAPA.AURIX2
B6: 684E12.SMCC.DM1 (antibody, V domains shown)
VH: B4 VH
VL: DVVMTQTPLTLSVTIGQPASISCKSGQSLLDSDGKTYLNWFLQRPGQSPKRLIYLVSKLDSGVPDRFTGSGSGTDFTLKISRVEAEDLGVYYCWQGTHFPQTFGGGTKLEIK
modifications: SMCC-DM1 on lysines of the antibody, DAR 2.6
notes: also called parental 684E12.SMCC.DM1

Assays:
human CCR7 [1] = biological target: T1, human CCR7; assay: cell-based or functional assay
human CCR7 [2] = biological target: T1, human CCR7; assay: cell-based or functional assay; remark: listed apart in the source
human CCR7 [3] = biological target: T1, human CCR7; assay: cell-based or functional assay; remark: listed apart in the source
human CCR7 [4] = biological target: T1, human CCR7; assay: FACS binding on CCR7 expressing cells, against the unconjugated antibody

Binder	pgADC cytotoxic assay, Anti-mFc.MMAF, AMAX (%) (human CCR7 [2])	pgADC cytotoxic assay, Anti-mFc.MMAF, IC50 (human CCR7 [2]) [nM]	pgADC cytotoxic assay, Fab-ZAP, AMAX (%) (human CCR7 [2])	pgADC cytotoxic assay, Fab-ZAP, IC50 (human CCR7 [2]) [nM]	difference of geometric mean fluorescence intensity from the unconjugated antibody (human CCR7 [4]) [%]	also measured
B1	95	0.07	60	0.135	–	ADCC reporter assay, 506E15 IC50 (nM), ALL-SIL cells (CCR7 receptor # 6,200) (human CCR7 [1]): 0.008 nM; ADCC reporter assay, 506E15 IC50 (nM), CMLT-1 cells (CCR7 receptor # 29,000) (human CCR7 [1]): 0.011 nM; ADCC reporter assay, 506E15 IC50 (nM), DEL cells (CCR7 receptor # 62,000) (human CCR7 [1]): 0.074 nM; ADCC reporter assay, 506E15 IC50 (nM), DND-41 cells (CCR7 receptor # 1,700) (human CCR7 [1]): 0.002 nM; ADCC reporter assay, 506E15 IC50 (nM), JVM2 cells (CCR7 receptor # 66,500) (human CCR7 [1]): 0.046 nM; ADCC reporter assay, 506E15 IC50 (nM), Jurkat V158 cells (CCR7 receptor # 3,400) (human CCR7 [1]): 0.004 nM; ADCC reporter assay, 506E15 IC50 (nM), MOTN-1 cells (CCR7 receptor # 64,600) (human CCR7 [1]): 0.077 nM; ADCC reporter assay, 506E15 IC50 (nM), PEER cells (CCR7 receptor # 8,700) (human CCR7 [1]): 0.038 nM; ADCC reporter assay, 506E15 IC50 (nM), SR786 cells (CCR7 receptor # 27,800) (human CCR7 [1]): 0.011 nM
B2	104	0.055	43	0.064	–	–
B3	102	0.137	31	6.12	–	–
B4	80	0.214	33	2.6	–	–
B5	–	–	–	–	≤ 20	ADC activity in cell viability assay; IC50 (nM); DEL cells (human CCR7 [3]): 0.0084 nM; ADC activity in cell viability assay; IC50 (nM); KE97 cells (human CCR7 [3]): 0.0131 nM
B6	–	–	–	–	≤ 20	–
